The target in this assay is E47 (mouse (endogenous in palatal shelves)) (UniProt P15806).

Experimental findings from article PMC3575576 are described below.

UniProt P15806, sequence (P15806 whole entry): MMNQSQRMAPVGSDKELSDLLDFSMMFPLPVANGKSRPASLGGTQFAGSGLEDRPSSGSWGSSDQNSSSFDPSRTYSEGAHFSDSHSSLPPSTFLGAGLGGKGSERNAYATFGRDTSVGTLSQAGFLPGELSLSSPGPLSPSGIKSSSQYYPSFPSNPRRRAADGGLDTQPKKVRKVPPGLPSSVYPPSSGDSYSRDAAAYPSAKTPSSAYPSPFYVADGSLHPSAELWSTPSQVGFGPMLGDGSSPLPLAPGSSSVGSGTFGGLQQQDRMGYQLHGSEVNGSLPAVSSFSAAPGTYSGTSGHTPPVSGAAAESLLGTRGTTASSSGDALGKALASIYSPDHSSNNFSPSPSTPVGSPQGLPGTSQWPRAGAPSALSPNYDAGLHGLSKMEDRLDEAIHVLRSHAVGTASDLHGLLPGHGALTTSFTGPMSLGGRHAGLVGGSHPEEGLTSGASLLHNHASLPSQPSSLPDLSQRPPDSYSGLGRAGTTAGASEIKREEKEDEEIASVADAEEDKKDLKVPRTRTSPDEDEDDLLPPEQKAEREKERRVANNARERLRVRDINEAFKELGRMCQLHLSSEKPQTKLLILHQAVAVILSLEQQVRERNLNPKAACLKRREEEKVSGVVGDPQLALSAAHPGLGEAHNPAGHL

B1: Twist1 (natural protein)
chain: MMQDVSSSPVSPADDSLSNSEEEPDRQQPASGKRGARKRRSSRRSAGGSAGPGGATGGGIGGGDEPGSPAQGKRGKKSAGGGGGGGAGGGGGGGGGSSSGGGSPQSYEELQTQRVMANVRERQRTQSLNEAFAALRKIIPTLPSDKLSKIQTLKLAARYIDFLYQVLQSDELDSKMASCSYVAHERLSYAFSVWRMEGAWSMSASH
For the molecule B1, the luciferase activity of the Snail1 promoter (1.7KSnLuc) in MDCK cells transfected with forced Twist1/E47 (T/E) heterodimers, compared with cells transfected with Twist1 alone is 2 fold.
